From patent US20150351390A1, “COMPOSITIONS AND METHODS FOR AUXIN-ANALOG CONJUGATION” (PIONEER HI-BRED INTERNATIONAL, INC., priority 2012, published 2015)

B1: GmGH3-14: GH3 protein, accession XP_003516612.1 (protein)
chain: MRPYPYVFPGPHVLPAKSTTEVVLIFCPLRYPGPLPLSFPFILSILILPSLIMALQFIEQVTKNTDSVQERVLSEILTQNAETEYLKRFALNGATDRDTFKSKVPVVTYEDLQPDIERIANGDRSPILCAHPISEFLTSSGTSAGERKLMPTIHEEMDRRQLLYSLLMPVMNQYVSDLDKGKALHFLFIKAEAKTPGGLMARPVLTSYYKSEQFRKRPFDPYNVLTSPNEAILCPDSFQSMYTQMLCGLIMRHEVLRVGAVFASGLLRAIRFLQLNWEQLSHDILTGTLNPKITEPSIKERMSKILKPDPELAAFIKSECSGENWERIIVRIWPNTKYLDVIVTGAMAQYIPTLDYYSGGLPKPCTMYASSECFFGLNLKPMSEPSDVSYTILPNMGYFEFLPHDDSSPITLSKDSPPRLVELADVELGKYYELIITTYAGLCRYRVGDILQVTGFHNSDPQFRFVRRKNVLLSIDSDKTDESELQKAVENASELLKEFNTSVAEYTSFADTKSIPGHYVIYWELMMKDSSHPPTNQVLNQCCLVMEESLNSVYRQGRVADNSIGPLEIRVVKNGTFEELMDYAISRGASINQYKVPRCVSFTPIMELLDSRVLSFHFSPAAPHWTPERRR
modifications: Glycine max
B2: GmGH3-15: GH3 protein, accession XP_003540050.1 (protein)
chain: MPEAPRDYNLFEQNKKTLEFIEDVTANADQVQKRVLSEILSNNANVEYLKRHDLHGQTDRETFKKLLPVITYEDIQPDINRIANGDTSPILCSKPISEFLTSSGTSGGERKLMPTIEEELGRRSLLYSLLMPVMSQFVPGLEKGKGMYLMFIKSEAKTPGGIVARPVLTSYYKSSYFKDRPYDPYTNYTSPNETVLCPDSYQSMYSQLLCGLCQHKEVLRVGAVFASGFIRAIRFLEKHWPLLCHDIRTGTINNTITDLSVRDAVMKILKPDPRLGDLIQSECGKSSWQGIITRLWPNTKYVDVIVTGTMSQYIPTLDYYSNGLPLVCTMYASSECYFGVNLNPLCKPSEVSYTLIPTMCYYEFLPVNRSNGVSHDSLHTPRSLNEKEQQELVELVDVKLGQEYELVVTTYAGLYRYRVGDVLRVAGFKNKAPQFNFVCRKNVVLSIDSDKTDEVELQNAMKNAVTHLVPFDASVSEYTSYADTTTIPGHYVLYWELSLKGSTPIPPCVFEDCCLAIEESLNSVYRQGRVSDKSIGPLEIKIVEQGTFDKLMDYAISLGASINQYKTPRCVKFAPVVELLNSRVVEKYFSPKCPKWVPGHKQWINQN
modifications: Glycine max
B3: Gm03g30590.1: GH3 protein, Glyma03g30590.1 (protein)
chain: MMTDEELLQKLEDLTKNAQHHHLETLRSILLHNGIVHYLQSFKKGSLLHLDPSTFARVVPLSTYEDYVDYINQMAEGKDDPFLSVDPLRCFFYSSGTSSSTMKPKLIPYFDSSLSKAASFIGHRGSVAVRQRLFPPRPEVNKILWFLYADNITTTKCGLKVMAASTYPLQSGNATPQQLAAFSSPLEVILATNVENQMYCHLLCGLRNLDLIDGIATPYAIGLIKAFGFLESKWEQLCDDLDHGFPCNEISEGAMREAVTNTLGGPQPELANRIRLICEGNNWGGIVYRLWPNIRYIRCVTTGSMKQYYQKLKYYAGEVPILGGDYFASECCVGLNLDIMQPPETTRFVMLPTFAYFEFLPFNINEDNDASKEAVDYSSVEVGKMYEVVVTTYRGYYRYRLGDIVRVVGFYNSSPLVEYVMRAPKTPAEIVTEKDLISAVENFQLALRGAMRIEIVEFASFLDQESMPKQLKVFVEVQEESDFLEDKLEESVRVLRSCISSLESGLGAIYKVQKDKGQLRSLRIFIIRPGAFDQLSELAIKNGTSASQYKPPKIIRNHEVVKLLEKLAFVAVSFDG
modifications: Glycine max
B4: BjACC38383.1: GH3 protein, accession ACC38383.1 (protein, listed as Brassica juncea)
chain: MIIISYYNEEEKGKVLEDLTWNVKQIQDDLLKEILTLNSGTEYLQNFLHGSSAKELFKKNLPIVTYKDVKPYIDRVANGESSNIISTLPITNFFNSSGTSGGANKILPSNSKYLDGSAFSTDLLAHVIRKHVKGVERGKGMLFFLTGHDTKTPGGFPIEDGISWYLKSDYFKNRPSTWFYSYTSPDEVMLGSDLKENLYCHLLCGLVQRDEVTRIGSTFASGMVRVIKVLEDSWKELCSNIRSGNLSEWITDSGCRNSVSLVLGGQPRHKLSDEIESICSQKSWKGIMKKLWPQTLCIEAIATGSMAQYVPTLKHYSGDVPLVSTIYASSESMFGINTDPLCQPENTSYTLMPNISYFEFIPTEGGNGDVVDLADVKLGCSYQLLVTNLWGLYRMRIGDIVKVTGFHNKAPKFRVIGRENTLLSIDTDRTTEEYLLKAVNRARLVLESSDLRLVAFTSYADISSSPGHYVIYWEVKTKEEDMKELDEKTFLECCSVMEDTLDEEYMYCRANEFIGPLEIRVVNDGTFDSLMNLSISKGASITQYKYWRQMWLLDSSVLSEHLMCLSHDIWSKKRGRNVCVLSVLSWFLLTIF
B5: GmGH3-10: GH3 protein, accession XP_003541929.1 (protein)
chain: MPEAPKHLCHDPKDNLDDDDDDGSSNNNKRALEYIEEVTTNADEIQEKVLAQILSRSANAEYLQRHGLEGRTDRNTFKNIMPVVTYEDLKPDIDRIANGDTSPILCSKPISEFLTSSGTSGGERKLMPTIEEELERRSMLYSLLMPVMDQFVPDLDKGKGMYFLFTKSEAKTPGGLLARPVLTSYYKSSHFKHRKHDPYTNYTSPNETILCHDSYQSMYSQLLCGLYQNEEVLRVGAVFASGFIRALKFLEKHFVCLCNDIRTGTLDAKITDPSVREAVMKVLKPNPTLADFVETECMKGSWKGIITRIWPNTKYVDVIVTGTMSQYIPILDYYSNGLPLVCTMYASSECYFGLNLNPSCDPSEVAYTLIPTMAYFEFLPLDEINGHTNSISQLEQEHLVDLADVKLGQEYELVVTTYAGLYRYRVGDILRVAGFKNKAPQFNFVCRKNVVLSIDSDKTDEVELHNAVKSGAEQLAEFNASLTEYTSCVDTSTIPGHYVLYWEISTNDHTPTIPSSVFGHCCLSIEESLNSVYRQGRVSESIGPLEIKVVENGTFDKLMDFALSQGASINQYKTPRCVTYAPILDLLNSKVLSSYISPKCPNWVPGHKDWCTLH
modifications: Glycine max
B6: GmGH3-6: GH3 protein, accession XP_003540891.1 (protein)
chain: MPQHQPTLMEPVLSYNNSTNNGNGNSDYDIISWFEDVSQNAGFVQTQLLFQILKQNYGVEYLKKWLGSYNILEMDACALESLFSSVVPLASHADFEPFIQRIADGDTAPLLTQQPITTLSLSSGTTEGRQKFVPFTRHSAQTTLQIFTLAAAYRSRIYPIRQGGRILEFIYSSNRFKTKGGLTVGTATTHYYASEEFNIKQHKTKSFTCSPQEVISGGDYKQSTYCHLLLGLFFSDQVEFITSAFIYSMVQAFTTFEELWREICNDIRDGTLSSRIKSPKMRKAVLDIISPNPNLAAKLEDACKGLEVVDWFGLIPKLWPNAKYVYSIMTGSMQPYLKKLRHYANGLPLVSADYGSTESWIGVNVDPSLPPEDVTFAVVPTFSYFEFIPLHRNEKNFSSGGDDFIEDKPIPLSQIKVGQEYEVVLTTFTGLYRCRLGDVVEVAGFHNGTPKLNFVCRRKLILTINIDKNTEKDLQLVVERGSHILNMTSRGELVDFTSYADVSKQPGHYVIYWEIKGEVEDKILGACCNEMDKSFADHGYVVSRKTNSIGPLELCVLESGTFKKILDSFIANGAALSQFKTPRCTNNHVLLKILNTCTTKKFRSTAYNSSMEQ
modifications: Glycine max

Assay: LC-MS assay of GH3 conjugation of IAA with Asp or Glu
Assay type: biochemical
Conditions: LC-MS; IAA with Asp
Procedure, shortened: (§1)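 Kinetic parameters come from Michaelis-Menten fits of initial velocities. Velocities reflect LC-MS quantification, against standards, of Asp or Glu conjugates formed by purified GH3 (44 to 164 μg/mL) with 5 mM ATP and MgCl2 at pH 8.0, 30° C.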
In the case of B1, the “Detected auxin conjugates: IAA-Asp” value is reported as “No”.
In the case of B2, the “Detected auxin conjugates: IAA-Asp” value is reported as “Yes”.
For B3, the “Detected auxin conjugates: IAA-Asp” value was “Yes”.
For B4, the “Detected auxin conjugates: IAA-Asp” value was “Yes”.
With B5 the “Detected auxin conjugates: IAA-Asp” value was “Yes”.
In the case of B6, the “Detected auxin conjugates: IAA-Asp” value is reported as “Yes”.

Same assay, conditions: LC-MS; IAA with Glu
With B1 the “Detected auxin conjugates: IAA-Glu” value was “No”.
With B2 the “Detected auxin conjugates: IAA-Glu” value was “Yes”.
With B3 the “Detected auxin conjugates: IAA-Glu” value was “No”.
With B4 the “Detected auxin conjugates: IAA-Glu” value was “No”.
In the case of B5, the “Detected auxin conjugates: IAA-Glu” value is reported as “Yes”.
With B6 the “Detected auxin conjugates: IAA-Glu” value was “Yes”.

Assay: LC-MS assay of GH3 conjugation of 2,4-D with Asp or Glu
Assay type: biochemical
Conditions: LC-MS; 2,4-D with Asp
Procedure, shortened: as §1
For B1, the “Detected auxin conjugates: 2,4-D-Asp” value was “No”.
In the case of B2, the “Detected auxin conjugates: 2,4-D-Asp” value is reported as “Yes”.
For B3, the “Detected auxin conjugates: 2,4-D-Asp” value was “Yes”.
In the case of B4, the “Detected auxin conjugates: 2,4-D-Asp” value is reported as “No”.
For B5, the “Detected auxin conjugates: 2,4-D-Asp” value was “Yes”.
With B6 the “Detected auxin conjugates: 2,4-D-Asp” value was “No”.

Same assay, conditions: LC-MS; 2,4-D with Glu
With B1 the “Detected auxin conjugates: 2,4-D-Glu” value was “No”.
With B2 the “Detected auxin conjugates: 2,4-D-Glu” value was “Yes”.
In the case of B3, the “Detected auxin conjugates: 2,4-D-Glu” value is reported as “Yes”.
With B4 the “Detected auxin conjugates: 2,4-D-Glu” value was “No”.
In the case of B5, the “Detected auxin conjugates: 2,4-D-Glu” value is reported as “Yes”.
With B6 the “Detected auxin conjugates: 2,4-D-Glu” value was “No”.

Assay: LC-MS assay of GH3 conjugation of dicamba with Asp or Glu
Assay type: biochemical
Conditions: LC-MS; dicamba with Asp
Description: To detect and monitor the formation of acyl conjugates with 2,4-D or dicamba, a sensitive LC-MS method was developed using the respective amino acid conjugate standards. […] […] […] The supernatant was diluted 20× in water and then analyzed by LC-MS (AB Sciex 4000 QTrap coupled with Shimadzu Nexera UHPLC) using a Phenomenex Luna 3 μm Phenyl-Hexyl (00B-4256-Y0) column. The concentration of the conjugates was calculated based on the standards. Kinetic parameters were estimated by fitting initial velocity values to the Michaelis-Menten equation.
The GH3 superfamily conjugase activity analysis of IAA, 2,4-D or dicamba with Asp or Glu was done using LC-MS to analyze the final conjugate products as described in Example 1. Protein sequences of GH3 homologs (Table 3) were obtained from public databases (NCBI, http://www.ncbi.nlm.nih.gov/) by Blast analysis of AtGH3.17 protein sequence (accession # Q9FZ87). Coding sequences were designed for optimal expression in E. coli based on the protein sequences and synthesized. Synthesized coding sequences along with N-term his-tag coding sequences were cloned into a pET24a-based E. coli expression vector. The E. coli expression vectors were transformed into OverExpress C41(DE3) cells (Lucigen) for protein expression. Recombinant E. coli strains were inoculated into 5 ml LB media supplemented with 40 mg/L kanamycin and cultured overnight at 37° C. The overnight culture (0.5 mL) was inoculated into 50 mL LB medium plus 40 mg/L kanamycin and grown at 30° C. until OD600 reached 0.6. The cultures were induced with 0.2 mM IPTG at 16° C., 230 rpm overnight. Cells were harvested by centrifugation at 7,000 rpm for 10 mins. The cell pellet from 50 mL of cell culture was frozen and thawed twice and then lysed in 800 μL lysis buffer A (150 mM NaCl, 50 mM Tris-HCl pH 8.0, 5 mM MgCl2, 10% glycerol) plus 20 mM imidazole, 1 mM DTT, 0.2 mg/ml lysozyme, 1/200 protease inhibitor cocktail (EMD set3, EDTA free) and 1/2000 endonuclease. Lysate was then centrifuged at 13,000 rpm for 30 min at 4° C. Supernatant was loaded onto 200 μL Ni-NTA columns pre-equilibrated with buffer A with 20 mM imidazole at 4° C. Each column was then washed with (1) 2×800 μL of buffer A with 10 mM imidazole, (2) 2×800 μL of buffer A with 20 mM imidazole and (3) 2×200 μL of buffer A with 50 mM imidazole. Protein was eluted with 200 μL of buffer A with 250 mM imidazole. The concentration was measured by Bradford assay. Purified protein was used in conjugation reaction assays as described in example 1.
In the case of B1, the “Detected auxin conjugates: Dicamba-Asp” value is reported as “No”.
In the case of B2, the “Detected auxin conjugates: Dicamba-Asp” value is reported as “No”.
With B3 the “Detected auxin conjugates: Dicamba-Asp” value was “No”.
For B4, the “Detected auxin conjugates: Dicamba-Asp” value was “No”.
With B5 the “Detected auxin conjugates: Dicamba-Asp” value was “No”.
In the case of B6, the “Detected auxin conjugates: Dicamba-Asp” value is reported as “No”.

Same assay, conditions: LC-MS; dicamba with Glu
With B1 the “Detected auxin conjugates: Dicamba-Glu” value was “No”.
In the case of B2, the “Detected auxin conjugates: Dicamba-Glu” value is reported as “No”.
For B3, the “Detected auxin conjugates: Dicamba-Glu” value was “No”.
In the case of B4, the “Detected auxin conjugates: Dicamba-Glu” value is reported as “No”.
For B5, the “Detected auxin conjugates: Dicamba-Glu” value was “No”.
For B6, the “Detected auxin conjugates: Dicamba-Glu” value was “No”.
